{"source": "patent US20190077863A1", "about": "(AERPIO PHARMACEUTICALS, published 2019)", "key": {"[1]": {"target": "T1, Cynomolgus VE-PTP (Cyno PTP-β) containing first eight FN3 repeats with C-terminal His10 tag (Cyno Beta ½ … (cynomolgus, UniProt P23467 25-817 (human entry)))", "T1 construct": "Produced in HEK293 cells; it was not cut off; also called Cyno VE-PTP", "T1 chain": "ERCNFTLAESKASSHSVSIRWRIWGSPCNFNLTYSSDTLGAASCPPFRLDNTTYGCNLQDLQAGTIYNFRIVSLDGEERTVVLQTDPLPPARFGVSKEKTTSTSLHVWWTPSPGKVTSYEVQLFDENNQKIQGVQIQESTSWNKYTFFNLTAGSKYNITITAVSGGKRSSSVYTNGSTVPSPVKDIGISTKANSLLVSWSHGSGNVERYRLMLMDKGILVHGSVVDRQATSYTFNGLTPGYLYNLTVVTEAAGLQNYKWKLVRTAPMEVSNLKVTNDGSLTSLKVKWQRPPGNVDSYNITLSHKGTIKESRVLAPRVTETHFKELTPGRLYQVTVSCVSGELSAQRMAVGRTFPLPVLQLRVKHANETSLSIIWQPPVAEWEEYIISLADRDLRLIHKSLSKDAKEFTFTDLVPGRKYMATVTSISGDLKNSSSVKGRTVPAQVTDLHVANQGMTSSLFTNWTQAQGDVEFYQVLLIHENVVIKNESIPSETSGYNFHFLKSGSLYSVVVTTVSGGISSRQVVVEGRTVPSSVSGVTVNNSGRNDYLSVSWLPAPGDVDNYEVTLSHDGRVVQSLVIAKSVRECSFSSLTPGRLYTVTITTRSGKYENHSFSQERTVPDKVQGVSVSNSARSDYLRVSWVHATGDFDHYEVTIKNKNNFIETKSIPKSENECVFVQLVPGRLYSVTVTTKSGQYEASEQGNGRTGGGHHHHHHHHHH", "assay": "ELISA, coated antigen", "experimental": "(§1) HPTP-β, cyno PTP-β, and HPTP-η proteins were coated onto ELISA plates in coating buffer (pH 9.4). Each protein was prepared as a 1 μg/mL protein stock in 50 mM carbonate-bicarbonate. The coated proteins were aliquoted at a volume of 100 μL/well into sterile, clear, polystyrene, flat bottom 96-well plates. The plates were incubated overnight at 4° C. After overnight incubation, the plates were washed 3× with 200 μL/well of 1×PBS-T (PBS with 0.05% Tween 20). The immunizing protein was human VE-PTP (HPTP-β). The plates were then blocked with 200 μL/well of 5% blotting grade blocker non-fat dry milk in PBS-T and incubated for 1 hr at room temperature.\n(§2) Primary antibody samples were prepared for the humanized variants and the negative control, anti-hCD20-hIgG4S228P, using 1 μg/well in 5% blotting grade blocker non-fat dry milk in PBS. Samples were tested in triplicates. The Fab antibody fragments were treated as the IgG antibodies. The plates were then washed 3× with PBS-T and 100 μL of primary antibody preparation was added in each well. The plates were then incubated for 1 hr at room temperature.\n(§3) Then, […] Ultra TMB-ELISA was added in each well, and the plate was allowed to develop for 5 min at room temperature. After 5 min, 50 μL of 2 M sulfuric acid was added to each well to stop the reaction. The plates were then analyzed on a plate reader at an absorbance wavelength of 450 nm."}, "[2]": {"target": "T2, Human HPTP-η with C-terminal His10 tag (Human HPTP-η ECD) (human, UniProt Q12913 36-975)", "T2 construct": "Produced in HEK293 cells; it was not cut off; also called Human PTPη; human PTP-η", "T2 sequence": "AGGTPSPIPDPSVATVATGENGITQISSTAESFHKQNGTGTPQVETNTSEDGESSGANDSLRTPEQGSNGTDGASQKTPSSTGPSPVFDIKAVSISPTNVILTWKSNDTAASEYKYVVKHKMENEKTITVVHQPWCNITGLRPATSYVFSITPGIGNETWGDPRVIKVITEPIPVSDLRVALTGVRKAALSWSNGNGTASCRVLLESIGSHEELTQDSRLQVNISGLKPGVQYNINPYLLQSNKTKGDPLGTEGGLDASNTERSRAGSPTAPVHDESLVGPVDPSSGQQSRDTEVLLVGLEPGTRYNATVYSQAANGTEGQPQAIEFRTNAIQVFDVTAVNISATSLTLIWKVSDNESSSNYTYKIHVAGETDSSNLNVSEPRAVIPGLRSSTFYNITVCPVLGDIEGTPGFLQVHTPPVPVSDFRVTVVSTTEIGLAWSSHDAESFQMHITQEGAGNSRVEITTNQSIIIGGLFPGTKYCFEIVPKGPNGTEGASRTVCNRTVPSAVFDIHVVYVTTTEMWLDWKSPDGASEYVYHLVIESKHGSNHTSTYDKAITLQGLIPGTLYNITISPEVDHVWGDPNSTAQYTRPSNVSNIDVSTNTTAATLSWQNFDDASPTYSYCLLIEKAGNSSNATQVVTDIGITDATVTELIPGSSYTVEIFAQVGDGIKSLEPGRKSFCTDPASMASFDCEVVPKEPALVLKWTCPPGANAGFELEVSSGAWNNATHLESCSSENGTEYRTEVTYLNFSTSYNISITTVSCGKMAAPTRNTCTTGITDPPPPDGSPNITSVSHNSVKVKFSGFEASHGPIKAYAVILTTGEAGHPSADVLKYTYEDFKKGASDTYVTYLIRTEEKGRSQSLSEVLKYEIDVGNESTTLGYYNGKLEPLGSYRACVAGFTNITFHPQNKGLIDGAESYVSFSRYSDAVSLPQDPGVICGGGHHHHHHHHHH", "assay": "ELISA, coated antigen", "experimental": "as §1, §2, §3"}, "VEGFR2": {"target": "T3, VEGFR2 (human, UniProt P35968 20-1356)", "T3 construct": "Named only as 'VEGFR2; (R2/T2)' in the immunoprecipitation experiment with HUVECs", "T3 sequence (P35968 20-1356 limits assumed)": "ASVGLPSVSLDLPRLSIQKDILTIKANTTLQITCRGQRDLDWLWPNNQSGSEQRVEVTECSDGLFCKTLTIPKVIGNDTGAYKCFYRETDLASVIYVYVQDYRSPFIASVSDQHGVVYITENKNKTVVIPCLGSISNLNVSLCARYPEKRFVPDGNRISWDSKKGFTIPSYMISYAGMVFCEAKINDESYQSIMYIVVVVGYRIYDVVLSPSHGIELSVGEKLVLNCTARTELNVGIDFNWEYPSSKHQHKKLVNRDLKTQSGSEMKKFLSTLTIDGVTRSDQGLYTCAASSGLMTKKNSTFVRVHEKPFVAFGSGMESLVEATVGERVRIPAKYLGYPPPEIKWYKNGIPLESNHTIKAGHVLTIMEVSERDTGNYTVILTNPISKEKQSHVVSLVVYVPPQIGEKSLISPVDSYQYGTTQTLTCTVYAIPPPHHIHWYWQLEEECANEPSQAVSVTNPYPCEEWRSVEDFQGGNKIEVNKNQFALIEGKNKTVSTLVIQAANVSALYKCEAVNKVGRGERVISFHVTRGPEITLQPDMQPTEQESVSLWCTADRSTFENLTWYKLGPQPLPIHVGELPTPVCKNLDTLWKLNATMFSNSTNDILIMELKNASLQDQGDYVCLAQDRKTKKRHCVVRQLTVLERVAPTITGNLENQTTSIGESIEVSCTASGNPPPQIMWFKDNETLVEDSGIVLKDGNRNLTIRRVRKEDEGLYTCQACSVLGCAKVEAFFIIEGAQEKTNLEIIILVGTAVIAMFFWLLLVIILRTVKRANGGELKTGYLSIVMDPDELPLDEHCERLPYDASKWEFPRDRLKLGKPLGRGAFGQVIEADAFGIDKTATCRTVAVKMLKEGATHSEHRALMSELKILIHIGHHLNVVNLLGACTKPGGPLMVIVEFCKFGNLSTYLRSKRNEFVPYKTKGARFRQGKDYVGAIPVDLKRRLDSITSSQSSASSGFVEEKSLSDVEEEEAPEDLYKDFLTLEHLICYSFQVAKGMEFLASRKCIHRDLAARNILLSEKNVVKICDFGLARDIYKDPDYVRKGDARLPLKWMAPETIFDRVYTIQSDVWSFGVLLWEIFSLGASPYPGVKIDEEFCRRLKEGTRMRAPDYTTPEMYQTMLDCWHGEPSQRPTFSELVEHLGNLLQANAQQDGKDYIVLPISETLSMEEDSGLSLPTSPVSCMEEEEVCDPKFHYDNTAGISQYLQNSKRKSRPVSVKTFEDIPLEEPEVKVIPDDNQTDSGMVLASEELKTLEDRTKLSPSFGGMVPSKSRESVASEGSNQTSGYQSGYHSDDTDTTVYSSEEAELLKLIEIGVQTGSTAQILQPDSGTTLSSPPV", "assay": "immunoprecipitation western blot, HUVECs"}, "Tie2": {"target": "T4, Tie2 (human, UniProt Q02763 23-1124)", "T4 construct": "Named only as 'Tie2 (R2/T2)' in the immunoprecipitation experiment with HUVECs; also called T2", "T4 sequence (Q02763 23-1124 limits assumed)": "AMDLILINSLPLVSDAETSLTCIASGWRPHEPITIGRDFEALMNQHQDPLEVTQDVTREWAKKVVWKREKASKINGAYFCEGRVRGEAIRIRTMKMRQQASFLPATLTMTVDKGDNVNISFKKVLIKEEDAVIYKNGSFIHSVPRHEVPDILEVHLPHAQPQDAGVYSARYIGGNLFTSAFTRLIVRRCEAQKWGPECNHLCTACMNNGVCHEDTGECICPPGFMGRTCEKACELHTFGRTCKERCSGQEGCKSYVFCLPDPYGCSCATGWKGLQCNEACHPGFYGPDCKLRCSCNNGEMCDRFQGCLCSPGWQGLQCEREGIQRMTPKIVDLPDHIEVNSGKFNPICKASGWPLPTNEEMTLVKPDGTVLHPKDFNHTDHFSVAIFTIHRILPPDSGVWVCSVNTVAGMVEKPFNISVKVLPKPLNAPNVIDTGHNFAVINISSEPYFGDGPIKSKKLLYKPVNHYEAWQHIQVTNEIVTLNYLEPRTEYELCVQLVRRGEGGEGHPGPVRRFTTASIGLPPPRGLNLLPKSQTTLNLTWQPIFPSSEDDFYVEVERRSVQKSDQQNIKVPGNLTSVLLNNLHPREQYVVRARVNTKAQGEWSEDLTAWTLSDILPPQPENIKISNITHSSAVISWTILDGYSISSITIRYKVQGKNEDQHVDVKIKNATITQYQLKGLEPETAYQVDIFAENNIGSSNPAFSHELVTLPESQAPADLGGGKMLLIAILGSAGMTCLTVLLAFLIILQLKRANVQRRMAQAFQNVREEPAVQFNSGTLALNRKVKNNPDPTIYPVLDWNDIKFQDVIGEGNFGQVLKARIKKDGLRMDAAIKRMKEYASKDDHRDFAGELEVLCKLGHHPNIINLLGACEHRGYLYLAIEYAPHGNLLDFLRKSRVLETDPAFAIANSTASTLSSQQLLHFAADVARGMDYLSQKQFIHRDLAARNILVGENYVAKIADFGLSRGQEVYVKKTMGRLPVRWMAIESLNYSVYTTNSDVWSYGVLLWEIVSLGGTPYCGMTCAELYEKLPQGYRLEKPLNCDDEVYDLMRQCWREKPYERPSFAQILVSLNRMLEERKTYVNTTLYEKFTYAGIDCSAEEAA", "assay": "immunoprecipitation western blot, HUVECs"}, "[3]": {"target": "T5, Human VE-PTP (HPTP-β) containing first eight FN3 repeats with C-terminal His6 tag (Human ½ VE-PTP ECD) (human, UniProt P23467 23-820)", "T5 construct": "Produced in HEK293 cells and purified by the His tag; it was not cut off; also called Human Beta ½ ECD", "T5 sequence": "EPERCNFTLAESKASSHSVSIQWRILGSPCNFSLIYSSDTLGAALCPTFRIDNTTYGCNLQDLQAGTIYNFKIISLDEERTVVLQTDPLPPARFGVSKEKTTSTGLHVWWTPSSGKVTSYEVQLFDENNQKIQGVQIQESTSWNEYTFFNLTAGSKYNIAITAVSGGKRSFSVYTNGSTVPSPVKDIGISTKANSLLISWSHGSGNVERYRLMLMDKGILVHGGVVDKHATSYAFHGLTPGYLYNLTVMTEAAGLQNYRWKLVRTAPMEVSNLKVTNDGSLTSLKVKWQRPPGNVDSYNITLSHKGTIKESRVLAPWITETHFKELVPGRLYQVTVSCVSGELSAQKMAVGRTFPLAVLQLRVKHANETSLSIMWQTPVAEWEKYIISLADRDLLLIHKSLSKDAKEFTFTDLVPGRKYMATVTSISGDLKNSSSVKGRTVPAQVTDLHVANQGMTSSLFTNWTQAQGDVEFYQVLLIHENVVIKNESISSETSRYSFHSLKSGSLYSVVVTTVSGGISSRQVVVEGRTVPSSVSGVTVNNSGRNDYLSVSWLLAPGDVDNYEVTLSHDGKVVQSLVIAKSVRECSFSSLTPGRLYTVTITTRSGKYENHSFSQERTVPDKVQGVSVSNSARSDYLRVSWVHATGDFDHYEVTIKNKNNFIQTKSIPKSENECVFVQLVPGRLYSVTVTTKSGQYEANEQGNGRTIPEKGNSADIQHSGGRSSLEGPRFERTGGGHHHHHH", "assay": "ELISA, antigen coated at 1 µg/mL, antibody 1 µg/well", "experimental": "as §1, §2, §3"}}, "data": [{"binder": "murine monoclonal antibody R15E6 (antibody, V domains shown, Murine monoclonal antibody of hybridoma ATCC PTA-7580, 150 kDa; also called Parental; parental antibody) VH: EVQLVETGGGLVQPKGSMKLSCAASGFTFNANAMNWIRQAPGKGLEWVARIRTKSNNYATYYAGSVKDRFTISRDDAQNMLYLQMNDLKTEDTAMYYCVRDYYGSSAWITYWGQGTLVTVSA VL: DIVMTQSHKFMSTSVGDRVSITCKASQHVGTAVAWYQQKPDQSPKQLIYWASTRHTGVPDRFTGSGSGTDFTLTISNVQSEDLADYFCQQYSSYPFTFGSGTKLEIK", "values": [{"measurement": "binding result", "setting": "[1]", "value": "no binding (tested: <=0.2; 1 µg/well)"}, {"measurement": "binding result", "setting": "[2]", "value": "no binding (tested: <=0.2; 1 µg/well)"}, {"measurement": "binding result", "setting": "VEGFR2", "value": "no binding"}, {"measurement": "binding result", "setting": "Tie2", "value": "no binding"}, {"measurement": "ELISA value (absorbance at 450 nm)", "setting": "[3]", "value": 2.43}]}]}
